Test: yeast display, Sf9 membrane polyspecificity reagent, FACS + sequencing; frameworks hold sequencing errors
Summary of the method: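 In a synthetic yeast display library (Saccharomyces cerevisiae BJ5465), nanobody expression was induced with galactose for 36–48 hours. FACS gates were set low and high (top ~1%) using anti-HA fluorescence for expression and streptavidin fluorescence for binding of the Sf9 membrane reagent. Each polyreactivity label is drawn from the gate of origin.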

| Sequence | polyreactivity (PSR sort gate) |
| --- | --- |
| QDQLVESGGGLVQAGGSLRLSCAASGYTFPSYAMGWYRQAPGKEREFVAAIDSSGGSTNYADSVKGRFTISRDNAKNTVYLQMNSLKPEETAVYYCAREYSSGYWVRHLFYYWGQGTKVTVSS | low polyreactivity |
| QDQLVESGGGLVQAGGSLRLSCAASRSIFPLYAMGWYRQATGKEREMVAAISYSGGRTYYADSVKGRFTISRDNAKNTVYLQMNSLKPEDTAVYYCNTRQRVIDDYWGQGTQVSVSS | high polyreactivity |
| QDQLVESGGGLVQAGGSLRLSCAPSGSTFGDYDMGGYRPAPGKERELVAAISNGGSTYYAASVKGRFTISRDNAKNTVYLQRNSLKPEDTADFYCNADNVEIRSTYEYGRYLYGYWGQGTQVTVSS | low polyreactivity |
| QDQLVESGGGLVQAGGSLRLSCAPSGYFDLNALGWYRQAPGKERELVAANTDGGSTNYADSVKGRFTISRDNAKNTFYLQMNSLKPEDTAVYYCAADRGHTILHGGYWGQGTQVTVSS | low polyreactivity |
| QDQLVESGGGLVQAGGSLRLSCASSGSTFPWYTMGWSRQAPGKERELVAAIDGSAGDTYYADSVKGRVTISRDNAKNTVYLQMNSLKPEDTAVYYCATRTWRWGYLHYDYWGQGTQVTVSS | low polyreactivity |
| QDQLVESGGGLVQAGGSLRLSCDASGSIFEQNAMGWYRPAPGKERELVAAISSGSTNYADSVKGRFTISRDNAKNTVYLQMNSLKPEDTAVYYCAKRWRRRFVDVWSLYDYWGQGTQVTVSS | low polyreactivity |
| QDQLVESGGGLVQAGGSLRLSCPASGHTFAKYAMGWYRQAPGKERELVAAISSGGDTYYADSVKGRFTISRDNAKNTVYLQMNSLIPEDTAVYYCAATSICGSWSFWSPGEYRHYDYWGQGTQVTVSS | low polyreactivity |
| QDQLVESGGGLVQAGGSLRLSCPASGRTFNYYAMGWYRQAPGKERELVAAISVSTTRTYYADSVKGRFTISRDNAKNTVYLQMNSLKPEDTAVYYCAAYRAGRFGYLGQGTQVTVSS | high polyreactivity |
| QDQLVESGGGLVQAGGSLRLSCSASGSTFIRNSKGWYRQATGKERELVAAITTDGSTDYADSVKGRFTISRDNAKNTVYLQMNSLKPEDTAVYYCNAEYRLDALSYDYWGQGTQVTVSS | low polyreactivity |
| QDQLVESGGGLVQAGGSLRLSGDASGSTFSKYVMGWYRQAPGKERELVAAISGGDRTYYADSVKGRFTISRDNAKNTVYLQMNSLKPEDTAVYFCAAEVLKTRWSYDYWGQGTQVTVSS | high polyreactivity |
| QDQLVESGGGLVQAGGSLRLSRAASGLIFYSYAMGWYRQAPGKERELVAAISSGGGRTYYADSVKGRFTISRDNAKNTVDLQMNSLKPEDTAVYYCAAYGSAAQKYPYDRPYRYGYWGQGTQVTVSS | high polyreactivity |
| QDQLVESGGGLVQAGGSLRLSSAASGRIFKRYAMGWYIQAPGKERELVAAITYNSGSTYYADSVKGRFTISRDNAKNTVYLQMNSLKPEDTAVFYCAAEKWSDQSPRGDYWGQGTQVTVSS | low polyreactivity |
| QDQLVESGGGLVQAGGSLRLTCAASGITFYRYAMGWYRQAPGKERELVAAITSGGRTNYADSVKGRFTISRDNAKNTVYLQMNSMKPEDTAVYYCGARLVRESEPLGYWGQGTQVTVSS | high polyreactivity |
| QDQLVESGGGLVQAGGSLRLTCAASGSIFTAYTMGWYRQAPVKERELVAAITERGGSTYYADSVKGRFTISRDNAKNTFYLQMNRMKPEDTAVYYCAASTLKDIYLWFRVDYWGQGTQVTLSS | low polyreactivity |
| QDQLVESGGGLVQAGGSLRLTSAASGRIFTIYAMGWYRQPPGKDRELVAAISDRGTRTYYADSVKGRFTISRDIAKNTVYLQMNSLKPEDTAVNYCSTDALYTYGYDYWGQGTQVTVSS | low polyreactivity |
| QDQLVESGGGLVQAGGSLSLSCAASGRTFYDYAMGWYRQAPGKERELVAAISRSGGRTYYADSVKGRFTISRDNAKNTVYLQMNSLKPEDTAVYYCNAVRYVLGYSYDYNYWGQGTQVTVSS | high polyreactivity |
| QDQLVESGGGLVQAGGTLRLSCAATGSTFTNYAMGWYRQAPGKERELVAALTSVGSTYYADSVKGRFTISRDNAKNTVYLQTNSLKAEDTAVYYCNVVYRDQYNYWGQGTQVTVSS | low polyreactivity |

Reference: the nanobody polyreactivity screen of Harvey et al. (2022)
